Experimental data as given in US11607466B2, “Tumor and immune cell imaging based on PD-L1 expression” (The Johns Hopkins University, priority 2016, dated 2023).

Experiments:
[1] = target: T1, PD-L1 in human NSCLC and TNBC xenografts (Homo sapiens, UniProt Q9NZQ7); settings: in vivo; cited from earlier work
T1 construct: host or cells: MDAMB231, SUM149 (TNBC), H2444, H1155 (NSCLC) xenografts in mice

PD-L1 in hPD-L1 cells = target: T2, PD-L1 in hPD-L1 cells (Homo sapiens, UniProt Q9NZQ7); test: In vitro binding of [64Cu]WL12 to hPD-L1 and CHO cells; format: cell-based
T2 construct: expressed in transfected cells; grown as tumours in NSG mice for the in vivo units
Method: (§1) 1.4.9. […] After incubation, cells were washed three times with cold PBS prior to counting on an automated gamma counter (1282 Compugamma CS, Pharmacia/LKBNuclear, Inc., Gaithersburg, Md.). […] Mean fluorescence intensity values were correlated with % incubated dose (% ID) uptake. All the cell uptake studies were performed in triplicate for each cell line and repeated three times.

PD-L1 in MDAMB231 cells = target: T3, PD-L1 in MDAMB231 cells (Homo sapiens, UniProt Q9NZQ7); test: In vitro binding of [64Cu]WL12 to MDAMB231 and SUM149 cells; format: cell-based; settings: 1 h incubation
T3 construct: MDAMB231 breast cancer cells, which naturally express PD-L1; endogenous in cells; host or cells: MDAMB231 (ATCC)
Method: as §1

in vivo = test: in vivo; parameters: species or system mouse; settings: female, mouse, in vivo, iv, 40 uCi, total radioactivity, radioactivity uptake
Method: (§2) 1.4.10. Animal Models: Animal studies were performed according to the protocols approved by the JHU Animal Care and Use Committee (ACUC). Six-to-eight week old, female, non-obese diabetic severe-combined immunodeficient gamma (NSG) mice were obtained from the JHU Immune Compromised Animal Core. Mice were implanted subcutaneously in opposite sides of the upper flanks with 10×10^6 of CHO-PDL1 and CHO cells. […] 1.4.12. […] For the blocking study, mice were co-injected with 2 mg/kg (50 μg) of unmodified peptide with the radiotracer. The percentage of injected dose per gram of tissue (% ID/g) values were calculated based on signal decay correction and normalization to external [^64Cu] standards, which were measured in triplicate. Biodistribution data shown is mean±the standard error of the mean (SEM).

hPD-L1 tumors [2] = target: T4, hPD-L1 tumors (Homo sapiens, UniProt Q9NZQ7); test: in vivo; parameters: species or system mouse
T4 construct: expressed in transfected cells; grown as tumours in NSG mice for the in vivo units
Method: as §2

hPD-L1 tumors [3] = target: T4, hPD-L1 tumors; test: PET-CT imaging of [64Cu]WL12 in mice with hPD-L1 and CHO tumors; format: in vivo, mouse
Method: 1.4.10. Animal Models: Animal studies were performed according to the protocols approved by the JHU Animal Care and Use Committee (ACUC). Six-to-eight week old, female, non-obese diabetic severe-combined immunodeficient gamma (NSG) mice were obtained from the JHU Immune Compromised Animal Core. Mice were implanted subcutaneously in opposite sides of the upper flanks with 10×10^6 of CHO-PDL1 and CHO cells. […] 1.4.11. […] Mice were maintained at 1% Isofluorane levels during imaging. PET images were acquired in two bed positions at 10 min/bed in an ARGUS small-animal PET/CT scanner (Sedecal, Madrid, Spain). A CT scan (512 projections) was performed at the end of each PET scan for anatomical co-registration. PET data were reconstructed using the two-dimensional ordered subsets-expectation maximization algorithm (2D-OSEM) and corrected for dead time and radioactive decay. The % ID per cc values were calculated based on a calibration factor obtained from a known radioactive quantity. Final data visualization and image generation was accomplished using Amira® (FEI, Hillsboro, Oreg.).

[4] = target: T5, PD-L1 in A549-iPDL1 cells (Homo sapiens, UniProt Q9NZQ7); test: Binding studies in doxycycline-inducible A549-iPDL1 cells; format: cell-based
T5 construct: expressed in transfected cells; host or cells: A549 NSCLC cells, lentiviral pINDUCER20, G418-selected, doxycycline-induced
From the text: To do so, an A549 NSCLC cell line with doxycycline-inducible PD-L1 expression (A549-iPD-L1) was generated. A549 is a Kras G12S lung adenocarcinoma cell line that expresses low PD-L1 at baseline.

[5] = target: T6, PD-L1 in A549-iPDL1 tumors (Homo sapiens, UniProt Q9NZQ7); test: [64Cu]WL12 PET and biodistribution in A549-iPDL1 and A549 xenografts; format: in vivo; settings: 72 h of doxycycline treatment
T6 construct: expressed in transfected cells; host or cells: A549 NSCLC cells, lentiviral pINDUCER20, G418-selected, doxycycline-induced; as xenografts for the in vivo unit
From the text: To do so, an A549 NSCLC cell line with doxycycline-inducible PD-L1 expression (A549-iPD-L1) was generated. A549 is a Kras G12S lung adenocarcinoma cell line that expresses low PD-L1 at baseline. It has been transduced with PD-L1 in the all-in-one lentivirus pINDUCER20 vector (Meerbrey, et al., 2011), selected with G418, confirmed for PD-L1 induction by flow cytometry (FIG. 37A) and used for in vitro and in vivo studies. Cy5-PD-L1-mAbs binding to doxycycline-treated A549-iPDL1 cells was blocked by WL12 validating the specificity of WL12 (FIG. 37B). […] Accordingly, it is expected that PET will play a key role in quantifying dynamic changes in PD-L1 expression within the standard clinical work flow, providing a novel way to inform therapy decisions.

PD-L1 in MDAMB231 tumors [6] = target: T7, PD-L1 in MDAMB231 tumors (Homo sapiens, UniProt Q9NZQ7); test: Tumor PD-L1 engagement by PD-L1 mAbs measured with [64Cu]WL12, MDAMB231 xenografts; format: in vivo; settings: mAb 24 h prior, 120 min after tracer injection, ex vivo
T7 construct: MDAMB231 breast cancer cells, which naturally express PD-L1; endogenous in cells; host or cells: MDAMB231 (ATCC); as xenografts in NSG mice for the in vivo units
Method: To evaluate the effect of dose on tumor PD-L1 occupancy at the tumor, mice bearing MDAMB231 tumors were injected with escalating doses of AtzMab from 0.009 to 24 mg/kg body weight.

[7] = target: T8, PD-L1 in HCC827, H226, hPD-L1 and MDAMB231 cells (Homo sapiens, UniProt Q9NZQ7); test: [64Cu]WL12 binding to PD-L1-positive cells in the presence of 60 nM mAbs; format: cell-based; settings: 60 nM mAb vs PBS control
T8 construct: Each of which naturally expresses PD-L1; endogenous in cells; host or cells: HCC827, H226, MDAMB231 (endogenous) and CHO-hPD-L1 (stably transfected)
Method: Non-interacting residues are shown in gray. […] Mean fluorescence intensities were determined by flow cytometry.
HCC827 and H226 non-small cell lung cancer (NSCLC) cells also were tested.

PD-L1 in MDAMB231 tumors [8] = target: T7, PD-L1 in MDAMB231 tumors; test: Tumor PD-L1 engagement by PD-L1 mAbs measured with [64Cu]WL12, MDAMB231 xenografts; format: in vivo; settings: AtzMab 20 mg/kg, AveMab 10 mg/kg, DurMab 10 mg/kg, 24 h prior to tracer
[9] = mouse, in vivo, iv, 40 uCi, 1 h

T2 sequence (Q9NZQ7 19-290): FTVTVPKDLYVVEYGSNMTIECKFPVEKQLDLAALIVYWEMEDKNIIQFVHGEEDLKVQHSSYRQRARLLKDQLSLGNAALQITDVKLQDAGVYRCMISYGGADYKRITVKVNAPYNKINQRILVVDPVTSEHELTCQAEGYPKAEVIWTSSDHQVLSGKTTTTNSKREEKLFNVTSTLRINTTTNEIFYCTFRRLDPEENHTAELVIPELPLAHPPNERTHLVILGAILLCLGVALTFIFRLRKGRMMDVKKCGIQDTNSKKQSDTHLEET
T4 sequence (Q9NZQ7 19-290): as above
T1 sequence (Q9NZQ7 19-290): as above
T5 sequence (Q9NZQ7 19-290): as above
T7 sequence (Q9NZQ7 19-290): as above
T3 sequence (Q9NZQ7 19-290): as above
T8 sequence (Q9NZQ7 19-290): as above
T6 sequence (Q9NZQ7 19-290): as above

[^111In]AtzMab: 111In-radiolabeled atezolizumab
uptake in PD-L1high H2444 vs PD-L1low H1155 NSCLC xenografts [1]: Increased uptake | uptake in PD-L1high MDAMB231 vs PD-L1low SUM149 TNBC xenografts [1]: Increased uptake

CCCC[C@H]1C(=O)N(C)[C@@H](CCCC)C(=O)N[C@@H](CCCNC(=O)CCC(C(=O)O)N2CCN(CC(=O)O)CCN(CC(=O)O)CCN(CC(=O)O)CC2)C(=O)N[C@H](C(=O)NCC(N)=O)CSCC(=O)N[C@@H](Cc2ccc(O)cc2)C(=O)N(C)[C@@H](C)C(=O)N[C@@H](CC(N)=O)C(=O)N2CCC[C@H]2C(=O)N[C@@H](Cc2c[nH]cn2)C(=O)N[C@@H](CC(C)C)C(=O)N2C[C@H](O)C[C@H]2C(=O)N[C@@H](Cc2c[nH]c3ccccc23)C(=O)N[C@@H](CO)C(=O)N[C@@H](Cc2cn(C)c3ccccc23)C(=O)N1C (single isomer, unassigned) [[^64Cu]WL12, metal not drawn]
correlation (r) of mean fluorescence intensity with uptake of radioactivity (PD-L1 in hPD-L1 cells; hPD-L1, MDAMB231, SUM149, CHO cells): 0.9977 | reduction in bound [64Cu]WL12 (PD-L1 in hPD-L1 cells; hPD-L1 cells, 1 μM blocking dose of WL12): > 95% | increase in bound radioactivity compared to negative control CHO cells (PD-L1 in hPD-L1 cells; hPD-L1 cells, 1 h incubation): 43 fold | uptake of the incubated dose (PD-L1 in hPD-L1 cells; hPD-L1 cells, 1 h incubation): > 50% | uptake of radioactivity in MDAMB231 cells compared to SUM149 cells (PD-L1 in MDAMB231 cells): Two-fold higher | tissue uptake at 1 h (in vivo; control CHO tumor): 4 ± 0.6 %ID/g | tissue uptake at 1 h (in vivo; hPD-L1 tumors): 14.9 ± 0.8 %ID/g | tissue uptake at 1 h (in vivo; kidneys): 34.4 ± 3.1 %ID/g | tissue uptake at 1 h (in vivo; liver): 24.2 ± 2.5 %ID/g | reduction in % ID/g values in hPD-L1 tumors (hPD-L1 tumors [2]; co-injected excess WL12 (50 μg, 2 mg/kg), 2 h): > 75% | change of uptake in control CHO tumors with blocking dose (hPD-L1 tumors [2]; co-injected excess WL12, 2 h): no significant difference | affinity for mouse PD-L1 (hPD-L1 tumors [2]; inferred from low uptake in spleen, thymus, brown fat): very low or no affinity | tumor-to-blood ratio (hPD-L1 tumors [2]; [9]): 4.7±1.2 | tumor-to-muscle ratio (hPD-L1 tumors [2]; [9]): 25.6±1.9 | time of increased uptake in hPD-L1 tumors, PET (hPD-L1 tumors [3]; 150 μCi i.v.): as early as 10 min and retained through 24 h post-injection | uptake in hPD-L1 tumor compared to CHO tumor, PET-CT (hPD-L1 tumors [3]; 24 h after injection): Increased uptake | increase in radioactivity uptake, doxycycline treated vs. untreated cells ([4]; A549-iPDL1 cells): 5.5 fold | accumulation in A549-iPDL1 tumors higher than in A549 control tumors [5]: 65%

DurMab: FDA-approved PD-L1 mAb durvalumab
decrease of [64Cu]WL12 binding to doxycycline-treated A549-iPDL1 cells ([4]; 60 nM mAb): 65% | less uptake of [64Cu]WL12 in tumors vs saline controls (PD-L1 in MDAMB231 tumors [6]): approximately 60% | [64Cu]WL12 binding to PD-L1-positive cells [7]: inhibited | [64Cu]WL12 uptake in MDAMB231 xenografts (PD-L1 in MDAMB231 tumors [8]): significantly reduced
